Data taken from paper PMC4252486.

Columns and labels:
Experiment in all cases: fluorescence anisotropy
[1] = molecular target: NCp9 (NCp7-SP2) (HIV-1 NL4-3, UniProt P12493 378-448)
[2] = molecular target: NCp15 WT (NCp7-SP2-p6) (HIV-1 NL4-3, UniProt P12493 378-500)
[3] = molecular target: NCp7 (mature nucleocapsid) (HIV-1 NL4-3, UniProt P12493 378-432)

## AGCTGCTTTTTGCCTGTACT (ssDNA) [JL936 (20-nt ssDNA)]
[1]
  Kd: 45 nM
[2]
  Kd: 151 nM
[3]
  Kd: 176 nM
